Data set [1] has as its target H3(1–19)K4me3-b (Paramecium tetraurelia). The experiment in a line: ELISA; C-terminally biotinylated peptides (4 μM) on streptavidin-coated plates; purified MBP or MBP-CRD fusions (10 to ~100 nM) in buffer C (25 mM Tris pH 7.4, 150 mM NaCl, 0.1% BSA, 0.05% Tween 20), 4 °C overnight; anti-MBP-HRP, absorbance at 450 nm. For orientation: ELISA stands for enzyme-linked immunosorbent assay.

Data set [2] has as its target Pgm(692–768)* (Paramecium tetraurelia). The experiment in a line: NMR titration; 100 μM 15N-Pgm(692–768)* titrated with 50 to 1000 μM H3(1–19), 1H-15N HSQC at 800 MHz, 5 mM HEPES pH 6.8, 25 mM NaCl, 20 °C; apparent KD from the chemical shift perturbations of E739, assuming 1:1 binding; 1H-1H TOCSY on the final titration point.
Another data set deals with T1, Pgm(692-768)* CRD (Paramecium tetraurelia, UniProt A0DFJ7 692-768).
T1 sequence: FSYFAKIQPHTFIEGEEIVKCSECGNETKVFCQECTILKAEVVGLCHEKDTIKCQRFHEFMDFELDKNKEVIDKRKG
The experiment in a line: NMR (1H-1H NOESY); equimolar DNA; 2 Zn2+ in protein; DRaCALA: 25 mM HEPES pH 7.5, 0.1 mg/ml BSA, 0.5 mM DTT, 100 mM NaCl, 25 nM DNA, no competitor, temperature not stated; EMSA: as in earlier paper, 5% acrylamide. The settings on record: protein: recombinant; tags: GST cleaved by PreScission; seven linker residues left at N-terminus; blunt. Background: A gel shift assay detects complexes by their altered migration in electrophoresis.

In the next data set the target is T2, MBP-Pgm (Paramecium tetraurelia, UniProt A0DFJ7 1-1065).
T2 sequence: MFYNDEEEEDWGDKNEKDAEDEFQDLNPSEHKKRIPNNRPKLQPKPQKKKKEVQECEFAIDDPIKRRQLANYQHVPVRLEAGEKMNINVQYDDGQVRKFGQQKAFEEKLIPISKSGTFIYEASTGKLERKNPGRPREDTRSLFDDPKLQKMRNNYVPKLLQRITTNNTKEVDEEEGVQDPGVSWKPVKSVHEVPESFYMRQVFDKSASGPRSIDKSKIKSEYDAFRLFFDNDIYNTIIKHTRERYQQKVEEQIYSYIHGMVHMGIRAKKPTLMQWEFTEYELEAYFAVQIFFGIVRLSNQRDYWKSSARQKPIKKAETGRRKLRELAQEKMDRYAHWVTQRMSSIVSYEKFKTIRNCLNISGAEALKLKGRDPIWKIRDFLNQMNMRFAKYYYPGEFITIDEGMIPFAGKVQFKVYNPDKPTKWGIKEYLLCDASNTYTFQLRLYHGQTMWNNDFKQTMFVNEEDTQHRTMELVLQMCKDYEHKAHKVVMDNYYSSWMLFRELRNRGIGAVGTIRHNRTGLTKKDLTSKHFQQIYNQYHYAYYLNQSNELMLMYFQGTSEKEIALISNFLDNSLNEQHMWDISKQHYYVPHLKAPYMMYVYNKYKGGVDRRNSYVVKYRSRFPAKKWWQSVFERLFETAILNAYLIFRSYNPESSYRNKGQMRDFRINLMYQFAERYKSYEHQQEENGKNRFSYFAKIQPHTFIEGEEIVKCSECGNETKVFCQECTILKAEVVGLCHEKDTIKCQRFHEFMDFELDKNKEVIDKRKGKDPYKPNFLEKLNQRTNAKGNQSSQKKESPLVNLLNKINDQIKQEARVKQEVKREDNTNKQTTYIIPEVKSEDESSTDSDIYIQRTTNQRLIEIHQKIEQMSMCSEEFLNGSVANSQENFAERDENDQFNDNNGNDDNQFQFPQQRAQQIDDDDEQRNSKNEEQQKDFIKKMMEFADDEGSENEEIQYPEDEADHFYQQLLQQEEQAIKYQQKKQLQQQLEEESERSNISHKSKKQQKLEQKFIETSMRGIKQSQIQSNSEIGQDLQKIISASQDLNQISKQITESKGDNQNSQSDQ
Briefly: DRaCALA; 400 nM protein; DRaCALA: 25 mM HEPES pH 7.5, 0.1 mg/ml BSA, 0.5 mM DTT, 100 mM NaCl, 25 nM DNA, no competitor, temperature not stated; EMSA: as in earlier paper, 5% acrylamide. The settings on record: protein: recombinant; tags: N-terminal MBP; label: 32P at 5' end of top strand.

Data set [3] deals with T3, GST-Pgm(692-768) CRD (Paramecium tetraurelia, UniProt A0DFJ7 692-768).
T3 sequence: T1 sequence
Briefly: DRaCALA; no competitor DNA; DRaCALA: 25 mM HEPES pH 7.5, 0.1 mg/ml BSA, 0.5 mM DTT, 100 mM NaCl, 25 nM DNA, no competitor, temperature not stated; EMSA: as in earlier paper, 5% acrylamide. As to conditions: protein: recombinant; tags: N-terminal GST; label: 32P at 5' end of top strand.

For data set [4], the target named is T3, GST-Pgm(692-768) CRD. The experiment in a line: EMSA; DRaCALA: 25 mM HEPES pH 7.5, 0.1 mg/ml BSA, 0.5 mM DTT, 100 mM NaCl, 25 nM DNA, no competitor, temperature not stated; EMSA: as in earlier paper, 5% acrylamide. The settings on record: protein: recombinant; tags: N-terminal GST; label: 32P.

On to MBP-Pgm(692–768) (domain or fragment), for which, in data set [1], the reduction of the ELISA interaction signal relative to unmodified H3(1–19) came out at 30%.

H3(1–19) (peptide): in data set [2], the Kd is 289 µM.

B1: i4404 (NMR) (dsDNA)
DNA 1: GCTTGCACATCTCTAGTTGATGG
DNA 2: CCATCAACTAGAGATGTGCAAGC
B1: the binding result with Pgm(692-768)* CRD is on record as “no binding”.

B2: IES 51A1835 80-bp substrate (dsDNA)
DNA 1: ACTACTACATAATGCTAAACTCATTTATAGATGGATTGTTTTCCAAGTATCTATATCATCATGTGTTGCTAATAACCCTG
DNA 2: ATCGCAGGGTTATTAGCAACACATGATGATATAGATACTTGGAAAACAATCCATCTATAAATGAGTTTAGCATTATGTAGT
As for B2, the binding result is “binds” in the data set with MBP-Pgm and “no binding” with GST-Pgm(692-768) CRD [3].

B3: i1835 (NMR) (dsDNA)
DNA 1: CTACTACATAATGCTAAACTCATTTATAGATGGATTGTTTTCCAAGTATCTATATC
DNA 2: GATATAGATACTTGGAAAACAATCCATCTATAAATGAGTTTAGCATTATGTAGTAG
With B3, the binding result in the data set with Pgm(692-768)* CRD is listed as “no binding”.

B4: IES 51A4404 left end 70-bp substrate (dsDNA)
DNA 1: CTAGCTTACAACGCAGCTTGCACATCTCTAGTTGATGGTATTGTGGTGTTATTTTAAAAAGTAATATATT
DNA 2: CGATAATATATTACTTTTTAAAATAACACCACAATACCATCAACTAGAGATGTGCAAGCTGCGTTGTAAG
As to B4, in the data set with GST-Pgm(692-768) CRD [4], the binding result is “no binding”.
